Molecular target: 3×HA-xtMc1r (Xenopus tropicalis melanocortin 1 receptor) (Xenopus tropicalis)

Row | EC50 of α-MSH in the cAMP luciferase reporter assay (pCRE-luc, HEK293T), xtMc1r:xtMrap1 plasmid ratios 1:0 to 1:6; EC50 from 6.906×10^−10 M (1:6) to 2.806 × 10^−9 M (1:0) | EC50 of α-MSH in the cAMP luciferase reporter assay (pCRE-luc, HEK293T), xtMc1r:xtMrap2 plasmid ratios 1:0 to 1:6; EC50 from 7.550 × 10^−10 M (1:3) to 2.036 × 10^−9 M (1:0) | EC50 of ACTH in the cAMP luciferase reporter assay (pCRE-luc, HEK293T), xtMc1r:xtMrap1 plasmid ratios 1:0 to 1:6; EC50 from 1.171 × 10^−9 M (1:3) to 7.006 × 10^−9 M (1:0) | EC50 of ACTH in the cAMP luciferase reporter assay (pCRE-luc, HEK293T), xtMc1r:xtMrap2 plasmid ratios 1:0 to 1:6; EC50 from 1.513 × 10^−9 M (1:6) to 7.150 × 10^−9 M (1:0) | Substance
1 | 2.81e-09 M | 2.04e-09 M |  |  | alpha melanocyte-stimulating hormone (α-MSH) peptide
2 |  |  | 7.01e-09 M | 7.15e-09 M | ACTH peptide

Source: publication PMC9251544
